Values quoted from earlier work in article PMC3526805.

Target: C3b C3b (Homo sapiens) (UniProt P01024)
Sequence of UniProt P01024 (P01024 566-670): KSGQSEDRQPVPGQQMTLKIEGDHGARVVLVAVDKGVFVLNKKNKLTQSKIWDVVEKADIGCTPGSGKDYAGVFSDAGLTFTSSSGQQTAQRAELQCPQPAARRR

Substance: Factor H four regulatory domains (from UniProt P08603)
- Kd: 10 µM
